Measurements from patent US20250298034A1, “METHODS OF TREATING IMMUNOTHERAPY-ASSOCIATED ADVERSE EFFECTS” (NORTHWESTERN UNIVERSITY, priority 2022, published 2025).

Test system: human peripheral monocyte differentiated M1 macrophages
Test: In vitro sMIC induction of PDL1 expression on monocyte-derived macrophages (flow cytometry)
Format: cell-based
Conditions: recombinant sMIC added at day 7, cultured 2 days; FIG. 4E
Method: In vitro macrophage generation from peripheral monocytes: Human peripheral blood monocyte differentiation into macrophages. PBMCs from healthy donors were seeded at the density of 2×10^6 cells/well in a 24 well plate with pre-warmed monocyte attachment media (MAM, Promocell, Cat. No. c-28051) and incubate at 37° C. After 1.5 hr incubation, non-adherent cells were removed. Adherent cells were washed three times with pre-warmed MAM before cultured in macrophage differentiation media respectively, the M1 macrophage generating media (Promocell c-28055) or the M2 macrophage generating media (Promocell c-28056). After 5 days of culture, 50% of the media were replaced with fresh media. At day 7, recombinant sMIC (rsMICB, his-tagged, SinoBiologicals Cat. No 10759-H08H) or control vehicle PBS were added to the culture at indicated concentration. The culture was continued for 2 days before being harvested for analyses.

B1: sMIC: recombinant sMIC (rsMICB, his-tagged, SinoBiologicals Cat. No 10759-H08H) (protein, UniProt Q29980 23-383, looked up)
MHC class I …: AEPHSLRYNLMVLSQDGSVQSGFLAEGHLDGQPFLRYDRQKRRAKPQGQWAENVLGAKTWDTETEDLTENGQDLRRTLTHIKDQKGGLHSLQEIRVCEIHEDSSTRGSRHFYYDGELFLSQNLETQESTVPQSSRAQTLAMNVTNFWKEDAMKTKTHYRAMQADCLQKLQRYLKSGVAIRRTVPPMVNVTCSEVSEGNITVTCRASSFYPRNITLTWRQDGVSLSHNTQQWGDVLPDGNGTYQTWVATRIRQGEEQRFTCYMEHSGNHGTHPVPSGKALVLQSQRTDFPYVSAAMPCFVIIIILCVPCCKKKTSAAEGPELVSLQVLDQHPVGTGDHRDAAQLGFQPLMSATGSTGSTEGT
modifications: His-tag
- PDL1 expression on M1 macrophages: can induce PDL1 expression
